Source: PMC4480679 (Biochemistry, 2015)

Target: T1, PhnI-his (E. coli, UniProt P16687 1-354)
T1 sequence (looked up): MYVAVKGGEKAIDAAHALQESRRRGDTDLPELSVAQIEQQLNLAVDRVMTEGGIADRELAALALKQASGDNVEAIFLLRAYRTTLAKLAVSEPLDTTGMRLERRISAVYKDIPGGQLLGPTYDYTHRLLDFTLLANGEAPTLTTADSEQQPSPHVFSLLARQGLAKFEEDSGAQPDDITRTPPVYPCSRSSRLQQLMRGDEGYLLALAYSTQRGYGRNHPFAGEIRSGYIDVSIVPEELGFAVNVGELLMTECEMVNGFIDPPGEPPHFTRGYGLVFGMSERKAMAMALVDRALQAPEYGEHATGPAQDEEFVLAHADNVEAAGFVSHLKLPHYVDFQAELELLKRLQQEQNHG
Test: N-terminal Edman sequencing of the purified complex

- stoichiometry N: 0.9 ± 0.1 PhnG per PhnI
B1: PhnG (natural protein, E. coli, UniProt P16685 1-150, looked up)
chain: MHADTATRQHWMSVLAHSQPAELAARLNALNITADYEVIRAAETGLVQIQARMGGTGERFFAGDATLTRAAVRLTDGTLGYSWVQGRDKQHAERCALIDALMQQSRHFQNLSETLIAPLDADRMARIAARQAEVNASRVDFFTMVRGDNA
